± gives the standard error.
Assay: background-corrected fluorescence of 3'-dye-labeled ssDNA relative to brightest sequence (3'-GCGCG) (fraction); higher = brighter dye fluorescence (less quenching)
How it was run: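 By light-directed phosphoramidite synthesis, single-stranded DNA ending in a 3' Cy3 or Cy5 dye beside each of 1024 permuted pentamers was built on glass slides. Scanning at 532 or 635 nm took place before and after overnight ethylenediamine/ethanol deprotection. Data are means of 10 features per array over at least 3 syntheses. Fluorescence is corrected for unlabeled-oligo background and scaled to the brightest sequence.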

Sequence	background-corrected fluorescence (dye: Cy3 (3' terminal))	background-corrected fluorescence (dye: Cy5 (3' terminal))
TTTTTTGATGCGCAGCATGATTTTTTTTTTTTTTTCATTC [CTTAC]	0.398 ± 0.017	0.297 ± 0.021
TTTTTTGATGCGCAGCATGCTTTTTTTTTTTTTTTCATTA [ATTAC]	0.554 ± 0.021	0.398 ± 0.027
TTTTTTGATGCGCATCAGCATTTTTTTTTTTTTTTCATGT [TGTAC]	0.615 ± 0.028	0.464 ± 0.032
TTTTTTGATGCGCATCATCATTTTTTTTTTTTTTTCATGG [GGTAC]	0.6391 ± 0.0053	0.521 ± 0.075
TTTTTTGATGCGCATCATGATTTTTTTTTTTTTTTCATGC [CGTAC]	0.536 ± 0.028	0.395 ± 0.026
TTTTTTGATGCGCATCATGCTTTTTTTTTTTTTTTCATGA [AGTAC]	0.672 ± 0.026	0.579 ± 0.038
TTTTTTGATGCGCATGAGCATTTTTTTTTTTTTTTCATCT [TCTAC]	0.48 ± 0.021	0.33 ± 0.034
TTTTTTGATGCGCATGATCATTTTTTTTTTTTTTTCATCG [GCTAC]	0.543 ± 0.018	0.375 ± 0.026
TTTTTTGATGCGCATGATGATTTTTTTTTTTTTTTCATCC [CCTAC]	0.38 ± 0.02	0.273 ± 0.017
TTTTTTGATGCGCATGATGCTTTTTTTTTTTTTTTCATCA [ACTAC]	0.483 ± 0.034	0.372 ± 0.026
TTTTTTGATGCGCATGCGCATTTTTTTTTTTTTTTCATAT [TATAC]	0.501 ± 0.036	0.397 ± 0.025
TTTTTTGATGCGCATGCTCATTTTTTTTTTTTTTTCATAG [GATAC]	0.521 ± 0.02	0.422 ± 0.027
TTTTTTGATGCGCATGCTGATTTTTTTTTTTTTTTCATAC	0.443 ± 0.024	0.314 ± 0.032
TTTTTTGATGCGCATGCTGCTTTTTTTTTTTTTTTCATAA [AATAC]	0.529 ± 0.021	0.428 ± 0.022
TTTTTTGATGCTCAGCAGCATTTTTTTTTTTTTTTCAGTT [TTGAC]	0.598 ± 0.018	0.434 ± 0.015
TTTTTTGATGCTCAGCATCATTTTTTTTTTTTTTTCAGTG [GTGAC]	0.61 ± 0.026	0.463 ± 0.025
TTTTTTGATGCTCAGCATGATTTTTTTTTTTTTTTCAGTC [CTGAC]	0.477 ± 0.0054	0.373 ± 0.086
TTTTTTGATGCTCAGCATGCTTTTTTTTTTTTTTTCAGTA [ATGAC]	0.609 ± 0.021	0.461 ± 0.022
TTTTTTGATGCTCATCAGCATTTTTTTTTTTTTTTCAGGT [TGGAC]	0.693 ± 0.045	0.534 ± 0.037
TTTTTTGATGCTCATCATCATTTTTTTTTTTTTTTCAGGG [GGGAC]	0.723 ± 0.023	0.574 ± 0.026
TTTTTTGATGCTCATCATGATTTTTTTTTTTTTTTCAGGC [CGGAC]	0.571 ± 0.012	0.469 ± 0.032
TTTTTTGATGCTCATCATGCTTTTTTTTTTTTTTTCAGGA [AGGAC]	0.705 ± 0.027	0.6 ± 0.034
TTTTTTGATGCTCATGAGCATTTTTTTTTTTTTTTCAGCT [TCGAC]	0.543 ± 0.022	0.418 ± 0.022
TTTTTTGATGCTCATGATCATTTTTTTTTTTTTTTCAGCG [GCGAC]	0.622 ± 0.036	0.502 ± 0.043
TTTTTTGATGCTCATGATGATTTTTTTTTTTTTTTCAGCC [CCGAC]	0.462 ± 0.011	0.321 ± 0.042
TTTTTTGATGCTCATGATGCTTTTTTTTTTTTTTTCAGCA [ACGAC]	0.514 ± 0.019	0.448 ± 0.027

Sequence	background-corrected fluorescence (dye: Cy3 (3' terminal))	background-corrected fluorescence (dye: Cy5 (3' terminal))
TTTTTTGATGCTCATGCGCATTTTTTTTTTTTTTTCAGAT [TAGAC]	0.576 ± 0.018	0.469 ± 0.021
TTTTTTGATGCTCATGCTCATTTTTTTTTTTTTTTCAGAG [GAGAC]	0.595 ± 0.022	0.462 ± 0.03
TTTTTTGATGCTCATGCTGATTTTTTTTTTTTTTTCAGAC	0.451 ± 0.024	0.372 ± 0.017
TTTTTTGATGCTCATGCTGCTTTTTTTTTTTTTTTCAGAA [AAGAC]	0.609 ± 0.022	0.471 ± 0.027
TTTTTTGATGCTGAGCAGCATTTTTTTTTTTTTTTCACTT	0.498 ± 0.016	0.351 ± 0.022
TTTTTTGATGCTGAGCATCATTTTTTTTTTTTTTTCACTG [GTCAC]	0.487 ± 0.028	0.398 ± 0.035
TTTTTTGATGCTGAGCATGATTTTTTTTTTTTTTTCACTC [CTCAC]	0.399 ± 0.017	0.296 ± 0.022
TTTTTTGATGCTGAGCATGCTTTTTTTTTTTTTTTCACTA [ATCAC]	0.471 ± 0.014	0.352 ± 0.025
TTTTTTGATGCTGATCAGCATTTTTTTTTTTTTTTCACGT [TGCAC]	0.588 ± 0.034	0.473 ± 0.03
TTTTTTGATGCTGATCATCATTTTTTTTTTTTTTTCACGG [GGCAC]	0.584 ± 0.023	0.525 ± 0.03
TTTTTTGATGCTGATCATGATTTTTTTTTTTTTTTCACGC [CGCAC]	0.536 ± 0.021	0.438 ± 0.036
TTTTTTGATGCTGATCATGCTTTTTTTTTTTTTTTCACGA [AGCAC]	0.594 ± 0.013	0.471 ± 0.023
TTTTTTGATGCTGATGAGCATTTTTTTTTTTTTTTCACCT [TCCAC]	0.457 ± 0.021	0.326 ± 0.03
TTTTTTGATGCTGATGATCATTTTTTTTTTTTTTTCACCG [GCCAC]	0.505 ± 0.024	0.423 ± 0.058
TTTTTTGATGCTGATGATGATTTTTTTTTTTTTTTCACCC [CCCAC]	0.37 ± 0.028	0.271 ± 0.019
TTTTTTGATGCTGATGATGCTTTTTTTTTTTTTTTCACCA [ACCAC]	0.493 ± 0.019	0.375 ± 0.043
TTTTTTGATGCTGATGCGCATTTTTTTTTTTTTTTCACAT [TACAC]	0.521 ± 0.02	0.368 ± 0.016
TTTTTTGATGCTGATGCTCATTTTTTTTTTTTTTTCACAG [GACAC]	0.481 ± 0.031	0.384 ± 0.019
TTTTTTGATGCTGATGCTGATTTTTTTTTTTTTTTCACAC	0.392 ± 0.006	0.311 ± 0.024
TTTTTTGATGCTGATGCTGCTTTTTTTTTTTTTTTCACAA [AACAC]	0.562 ± 0.022	0.411 ± 0.021
TTTTTTGATGCTGCGCAGCATTTTTTTTTTTTTTTCAATT [TTAAC]	0.538 ± 0.027	0.385 ± 0.029
TTTTTTGATGCTGCGCATCATTTTTTTTTTTTTTTCAATG [GTAAC]	0.53 ± 0.029	0.364 ± 0.026
TTTTTTGATGCTGCGCATGATTTTTTTTTTTTTTTCAATC [CTAAC]	0.421 ± 0.026	0.284 ± 0.013
TTTTTTGATGCTGCGCATGCTTTTTTTTTTTTTTTCAATA [ATAAC]	0.574 ± 0.023	0.422 ± 0.042
TTTTTTGATGCTGCTCAGCATTTTTTTTTTTTTTTCAAGT [TGAAC]	0.629 ± 0.0081	0.478 ± 0.039

— the supplement of paper PMC9428881
